This is an account of results in patent publication US20200262873A1.

Sequences and labels used below:
B1: Recombinant immunoglobulin κ light chain binding protein KBP12 (designed binder)
chain: KETPETPEEPKEEVTIKVNLIFADGRTQTATFKHRFEEATAKAYRYADLLAKVQGEYTADLEDGGYTINIKFAGKKETPETPEEPKEEVTIKVNLIFADGRTQTATFKHRFEEATAKAYRYADLLAKVQGEYTADLEDGGYTINIKFAGKKETPETPEEPKEEVTIKVNLIFADGRTQTATFKHRFEEATAKAYRYADLLAKVQGEYTADLEDGGYTINIKFAGKKETPETPEEPKEEVTIKVNLIFADGRTQTATFKHRFEEATAKAYRYADLLAKVQGEYTADLEDGGYTINIKFAGK
B2: Recombinant immunoglobulin κ light chain binding protein KBP13 (designed binder)
chain: KETPETPEEPKEEVTIKVNLIFADGRTQTATFKGRFEEATAKAYRYADLLAKVQGEHTADLEDGGYTINIKFAGKKETPETPEEPKEEVTIKVNLIFADGRTQTATFKGRFEEATAKAYRYADLLAKVQGEHTADLEDGGYTINIKFAGKKETPETPEEPKEEVTIKVNLIFADGRTQTATFKGRFEEATAKAYRYADLLAKVQGEHTADLEDGGYTINIKFAGKKETPETPEEPKEEVTIKVNLIFADGRTQTATFKGRFEEATAKAYRYADLLAKVQGEHTADLEDGGYTINIKFAGK
B3: Recombinant immunoglobulin κ light chain binding protein KBP14 (designed binder)
chain: KETPETPEEPKEEVTIKVNLIFADGRTQTATHKGRFEEATAKAYRYADLLAKVQGEYTADLEDGGYTINIKFAGKKETPETPEEPKEEVTIKVNLIFADGRTQTATHKGRFEEATAKAYRYADLLAKVQGEYTADLEDGGYTINIKFAGKKETPETPEEPKEEVTIKVNLIFADGRTQTATHKGRFEEATAKAYRYADLLAKVQGEYTADLEDGGYTINIKFAGKKETPETPEEPKEEVTIKVNLIFADGRTQTATHKGRFEEATAKAYRYADLLAKVQGEYTADLEDGGYTINIKFAGK
B4: Recombinant type immunoglobulin κ light chain binding protein KBP0 (designed binder)
chain: KETPETPEEPKEEVTIKVNLIFADGKTQTATFKGTFEEATAEAYRYADLLAKVNGEYTADLEDGGYTINIKFAGKKETPETPEEPKEEVTIKVNLIFADGKTQTATFKGTFEEATAEAYRYADLLAKVNGEYTADLEDGGYTINIKFAGKKETPETPEEPKEEVTIKVNLIFADGKTQTATFKGTFEEATAEAYRYADLLAKVNGEYTADLEDGGYTINIKFAGKKETPETPEEPKEEVTIKVNLIFADGKTQTATFKGTFEEATAEAYRYADLLAKVNGEYTADLEDGGYTINIKFAGK
B5: Recombinant immunoglobulin κ light chain binding protein KBP8 (designed binder)
chain: KETPETPEEPKEEVTIKVNLIFADGKTQTATFKGTFEKATAEAYRYADLLAKVNGEYTADLEDGGYTINIKFAGKKETPETPEEPKEEVTIKVNLIFADGKTQTATFKGTFEKATAEAYRYADLLAKVNGEYTADLEDGGYTINIKFAGKKETPETPEEPKEEVTIKVNLIFADGKTQTATFKGTFEKATAEAYRYADLLAKVNGEYTADLEDGGYTINIKFAGKKETPETPEEPKEEVTIKVNLIFADGKTQTATFKGTFEKATAEAYRYADLLAKVNGEYTADLEDGGYTINIKFAGK
B6: Recombinant immunoglobulin κ light chain binding protein KBP2 (designed binder)
chain: KETPETPEEPKEEVTIKHNLIFADGKTQTATFKGTFEEATAEAYRYADLLAKVNGEYTADLEDGGYTINIKFAGKKETPETPEEPKEEVTIKHNLIFADGKTQTATFKGTFEEATAEAYRYADLLAKVNGEYTADLEDGGYTINIKFAGKKETPETPEEPKEEVTIKHNLIFADGKTQTATFKGTFEEATAEAYRYADLLAKVNGEYTADLEDGGYTINIKFAGKKETPETPEEPKEEVTIKHNLIFADGKTQTATFKGTFEEATAEAYRYADLLAKVNGEYTADLEDGGYTINIKFAGK
B7: Recombinant immunoglobulin κ light chain binding protein KBP7 (designed binder)
chain: KETPETPEEPKEEVTIKVNLIFADGKTQTATFKHTFEEATAEAYRYADLLAKVNGEYTADLEDGGYTINIKFAGKKETPETPEEPKEEVTIKVNLIFADGKTQTATFKHTFEEATAEAYRYADLLAKVNGEYTADLEDGGYTINIKFAGKKETPETPEEPKEEVTIKVNLIFADGKTQTATFKHTFEEATAEAYRYADLLAKVNGEYTADLEDGGYTINIKFAGKKETPETPEEPKEEVTIKVNLIFADGKTQTATFKHTFEEATAEAYRYADLLAKVNGEYTADLEDGGYTINIKFAGK
B8: Recombinant immunoglobulin κ light chain binding protein KBP10 (designed binder)
chain: KETPETPEEPKEEVTIKVNLIFADGKTQTATFKGTFEEATAEAYRYADLLAKVNGEHTADLEDGGYTINIKFAGKKETPETPEEPKEEVTIKVNLIFADGKTQTATFKGTFEEATAEAYRYADLLAKVNGEHTADLEDGGYTINIKFAGKKETPETPEEPKEEVTIKVNLIFADGKTQTATFKGTFEEATAEAYRYADLLAKVNGEHTADLEDGGYTINIKFAGKKETPETPEEPKEEVTIKVNLIFADGKTQTATFKGTFEEATAEAYRYADLLAKVNGEHTADLEDGGYTINIKFAGK
B9: Recombinant immunoglobulin κ light chain binding protein KBP5 (designed binder)
chain: KETPETPEEPKEEVTIKVNLIFADGKTQTHTFKGTFEEATAEAYRYADLLAKVNGEYTADLEDGGYTINIKFAGKKETPETPEEPKEEVTIKVNLIFADGKTQTHTFKGTFEEATAEAYRYADLLAKVNGEYTADLEDGGYTINIKFAGKKETPETPEEPKEEVTIKVNLIFADGKTQTHTFKGTFEEATAEAYRYADLLAKVNGEYTADLEDGGYTINIKFAGKKETPETPEEPKEEVTIKVNLIFADGKTQTHTFKGTFEEATAEAYRYADLLAKVNGEYTADLEDGGYTINIKFAGK
B10: Recombinant immunoglobulin κ light chain binding protein KBP3 (designed binder)
chain: KETPETPEEPKEEVTIKVNHIFADGKTQTATFKGTFEEATAEAYRYADLLAKVNGEYTADLEDGGYTINIKFAGKKETPETPEEPKEEVTIKVNHIFADGKTQTATFKGTFEEATAEAYRYADLLAKVNGEYTADLEDGGYTINIKFAGKKETPETPEEPKEEVTIKVNHIFADGKTQTATFKGTFEEATAEAYRYADLLAKVNGEYTADLEDGGYTINIKFAGKKETPETPEEPKEEVTIKVNHIFADGKTQTATFKGTFEEATAEAYRYADLLAKVNGEYTADLEDGGYTINIKFAGK
B11: Recombinant immunoglobulin κ light chain binding protein KBP1 (designed binder)
chain: KETPETPEEPKEEVTHKVNLIFADGKTQTATFKGTFEEATAEAYRYADLLAKVNGEYTADLEDGGYTINIKFAGKKETPETPEEPKEEVTHKVNLIFADGKTQTATFKGTFEEATAEAYRYADLLAKVNGEYTADLEDGGYTINIKFAGKKETPETPEEPKEEVTHKVNLIFADGKTQTATFKGTFEEATAEAYRYADLLAKVNGEYTADLEDGGYTINIKFAGKKETPETPEEPKEEVTHKVNLIFADGKTQTATFKGTFEEATAEAYRYADLLAKVNGEYTADLEDGGYTINIKFAGK
B12: Recombinant immunoglobulin κ light chain binding protein KBP11 (designed binder)
chain: KETPETPEEPKEEVTIKVNLIFADGKTQTATFKGTFEEATAEAYRYADLLAKVNGEYTADLEDGGYTINHKFAGKKETPETPEEPKEEVTIKVNLIFADGKTQTATFKGTFEEATAEAYRYADLLAKVNGEYTADLEDGGYTINHKFAGKKETPETPEEPKEEVTIKVNLIFADGKTQTATFKGTFEEATAEAYRYADLLAKVNGEYTADLEDGGYTINHKFAGKKETPETPEEPKEEVTIKVNLIFADGKTQTATFKGTFEEATAEAYRYADLLAKVNGEYTADLEDGGYTINHKFAGK
B13: Recombinant immunoglobulin κ light chain binding protein KBP6 (designed binder)
chain: KETPETPEEPKEEVTIKVNLIFADGKTQTATHKGTFEEATAEAYRYADLLAKVNGEYTADLEDGGYTINIKFAGKKETPETPEEPKEEVTIKVNLIFADGKTQTATHKGTFEEATAEAYRYADLLAKVNGEYTADLEDGGYTINIKFAGKKETPETPEEPKEEVTIKVNLIFADGKTQTATHKGTFEEATAEAYRYADLLAKVNGEYTADLEDGGYTINIKFAGKKETPETPEEPKEEVTIKVNLIFADGKTQTATHKGTFEEATAEAYRYADLLAKVNGEYTADLEDGGYTINIKFAGK
B14: Recombinant immunoglobulin κ light chain binding protein KBP9 (designed binder)
chain: KETPETPEEPKEEVTIKVNLIFADGKTQTATFKGTFEEATAKAYRYADLLAKVNGEYTADLEDGGYTINIKFAGKKETPETPEEPKEEVTIKVNLIFADGKTQTATFKGTFEEATAKAYRYADLLAKVNGEYTADLEDGGYTINIKFAGKKETPETPEEPKEEVTIKVNLIFADGKTQTATFKGTFEEATAKAYRYADLLAKVNGEYTADLEDGGYTINIKFAGKKETPETPEEPKEEVTIKVNLIFADGKTQTATFKGTFEEATAKAYRYADLLAKVNGEYTADLEDGGYTINIKFAGK
B15: Recombinant immunoglobulin κ light chain binding protein KBP4 (designed binder)
chain: KETPETPEEPKEEVTIKVNLIFADGKTHTATFKGTFEEATAEAYRYADLLAKVNGEYTADLEDGGYTINIKFAGKKETPETPEEPKEEVTIKVNLIFADGKTHTATFKGTFEEATAEAYRYADLLAKVNGEYTADLEDGGYTINIKFAGKKETPETPEEPKEEVTIKVNLIFADGKTHTATFKGTFEEATAEAYRYADLLAKVNGEYTADLEDGGYTINIKFAGKKETPETPEEPKEEVTIKVNLIFADGKTHTATFKGTFEEATAEAYRYADLLAKVNGEYTADLEDGGYTINIKFAGK

The target of the experiment is human IgG (IgG Sepharose 6 Fast Flow, GE Healthcare Biosciences Corp.) (human). Briefly: IgG Sepharose 6 Fast Flow column; bound at neutral pH, eluted at pH 3.0 then pH 2.5; peak area A/(A+B).
For the molecule B1, the Antibody dissociation rate (%) at pH 3.0 is 100%.

Consider B2, for which the Antibody dissociation rate (%) at pH 3.0 was found to be 100%.

With B3, the Antibody dissociation rate (%) at pH 3.0 was found to be 100%.

B4: the Antibody dissociation rate (%) at pH 3.0 came out at 50%.

As for B5, the Antibody dissociation rate (%) at pH 3.0 was 80%.

B6 registered an Antibody dissociation rate (%) at pH 3.0 of 98%.

Molecule B7 displayed an Antibody dissociation rate (%) at pH 3.0 of 97%.

For B8, the Antibody dissociation rate (%) at pH 3.0 is 97%.

For the molecule B9, the Antibody dissociation rate (%) at pH 3.0 worked out at 92%.

Molecule B10 showed an Antibody dissociation rate (%) at pH 3.0 of 95%.

Turning to B11, the Antibody dissociation rate (%) at pH 3.0 was 95%.

For B12, the Antibody dissociation rate (%) at pH 3.0 was 99%.

For B13, the Antibody dissociation rate (%) at pH 3.0 was 92%.

B14 had an Antibody dissociation rate (%) at pH 3.0 of 95%.

With B15, the Antibody dissociation rate (%) at pH 3.0 came to 95%.
